Values of other authors as cited in publication PMC5536120.

Experiments:
[1] = target: knob B peptide GHRP (Homo sapiens) (UniProt P02675)
[2] = target: Fibrin central fragment central region (knobs A) (Homo sapiens) (UniProt P02671)

Chain of UniProt P02675 (P02675 whole entry, looked up, the tested form may be a part): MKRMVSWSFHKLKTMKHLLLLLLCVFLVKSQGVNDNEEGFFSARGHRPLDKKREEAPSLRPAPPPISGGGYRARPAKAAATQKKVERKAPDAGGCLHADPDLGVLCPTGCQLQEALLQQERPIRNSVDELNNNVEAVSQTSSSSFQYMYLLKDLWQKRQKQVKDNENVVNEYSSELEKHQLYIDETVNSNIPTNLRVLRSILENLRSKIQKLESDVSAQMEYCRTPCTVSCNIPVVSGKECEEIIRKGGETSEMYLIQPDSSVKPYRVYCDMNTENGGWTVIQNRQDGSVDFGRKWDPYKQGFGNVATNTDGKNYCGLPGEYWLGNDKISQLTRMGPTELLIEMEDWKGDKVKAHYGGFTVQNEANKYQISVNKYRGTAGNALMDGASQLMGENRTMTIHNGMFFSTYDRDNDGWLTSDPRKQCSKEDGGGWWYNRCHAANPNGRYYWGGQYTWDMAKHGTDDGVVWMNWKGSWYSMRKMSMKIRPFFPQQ

Kd [1]: 140 µM | Kd [2]: 5.8 µM
Substance: Fibrinogen (from UniProt P02671)
